The values that follow come from patent publication US20050084493A1 (Amgen, published 2005).

What is called IC50 is the point on the concentration scale where inhibition reaches its midpoint.

Test [1] deals with IL-1 receptor type I (IL-1R1) on SW982 synoviocytes / HUVEC (human) (UniProt P14778). As to the kind of experiment: cell-based or functional assay.
Test [2] addresses T1, IL-1β (Homo sapiens (Human), UniProt P01584 117-269). As to the kind of experiment: cell-based or functional assay.
The target in test [3] is T1, IL-1β. As to the kind of experiment: ECL (Origen) competition of complex formation: antibody titrated against biotinylated sIL-1 receptor (1 nM), IL-1β (1 nM), ruthenium-tagged IL-1RacP (5 nM).
Experimental: The resulting complexes were captured using magnetic streptavidin-coated beads and an Origen® Analyzer (IGEN Inc.) measured an ECL signal proportional to the ruthenium tag captured in the complex to evaluate competition of complex formation.
After a 1-hour incubation, the resulting complexes were captured using magnetic streptavidin-coated beads. Competition of complex formation was evaluated using an Origen® Analyzer (IGEN Inc.), which measures an ECL signal proportional to the ruthenium tag captured in the complex.

Chain of IL-1 receptor type I (IL-1R1) on SW982 synoviocytes / HUVEC (human) (P14778 18-569): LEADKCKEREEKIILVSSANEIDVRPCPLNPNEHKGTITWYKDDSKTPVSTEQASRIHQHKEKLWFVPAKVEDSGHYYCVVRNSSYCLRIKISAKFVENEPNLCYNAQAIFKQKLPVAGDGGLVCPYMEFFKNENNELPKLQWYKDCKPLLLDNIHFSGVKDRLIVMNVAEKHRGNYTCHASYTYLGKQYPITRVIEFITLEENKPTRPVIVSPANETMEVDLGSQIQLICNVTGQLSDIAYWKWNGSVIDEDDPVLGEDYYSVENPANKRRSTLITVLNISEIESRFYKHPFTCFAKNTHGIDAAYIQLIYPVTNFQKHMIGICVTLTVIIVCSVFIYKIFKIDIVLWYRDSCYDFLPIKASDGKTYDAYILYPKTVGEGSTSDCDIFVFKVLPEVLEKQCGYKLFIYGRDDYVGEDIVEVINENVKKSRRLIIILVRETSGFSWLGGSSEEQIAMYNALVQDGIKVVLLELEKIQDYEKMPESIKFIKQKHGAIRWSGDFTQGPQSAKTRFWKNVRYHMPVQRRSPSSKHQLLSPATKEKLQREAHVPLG

In test [1], “IL-1ra (from UniProt P18510 26-177) (ligand)” came in with an IC50 (pM), IL-1β-dependent GROα production in HUVEC of 2930 pM.

B1: MAB201 murine monoclonal anti-IL-1β antibody (R&D Systems) (antibody, V domains shown)
VH: QVTLKESGPGILKPSQTLSLTCSFSGFSLSTSGMGVGWIRQPSGKGLEWLAHIWWDGDESYNPSLKTRLTISKNTSRNQVFLKITTVDTVDTATYFCARNRYDPPWFVDWGQGTLVTVSS
VL: DIQMTQTTSSLSASLGDRVTISCRASQDISNYLSWYQQKPDGTVKLLIYYTSKLHSGVPSRFSGSGSGTDYFLTISNLEQEDIATYFCLQGKMLPWTFGGGTKLEIK
notes: Commercial murine monoclonal; light chain is kappa; also called Mouse; mouse monoclonal MAB201
For the molecule B1, in test [2], the “IC50 (pM), IL-1β-dependent GROα production in HUVEC” value is 171 pM. This molecule also had an IC50 in test [3] of 0.476 nM.
